Test results as given in US20170298146A1 (MODIQUEST B V, published 2017).
Non-standard residues stand in square brackets, D forms with d. No end group written: not given here. Cit = NC(=O)NCCC[C@H](N)C(=O)O

Tests used:
[1] = biological target: T1, human recombinant histone H2A (human); assay: ELISA, 2 ug/well
T1 construct: Non-deiminated
Description: (§1) CFC-1 and CFC-0 were coated at the same concentration and served as positive and negative controls, respectively, for specific anti-citrulline reactivity and as coating controls. Non-coated wells were used to test for aspecific binding of the antibodies. […] Detection of bound anti-citrulline antibodies was performed by incubating the wells with rabbit-anti-human-HRP (1:2000) for one hour at RT followed by incubation with TMB substrate. The resulting OD (y-axis) is a measure for antibody binding. H1=recombinant histone 1; H1/p2=huPAD2 recombinant histone 1; H1/p4=huPAD4 recombinant histone 1 and so forth (x-axis).

[2] = biological target: T2, human recombinant histone H2B (human); assay: ELISA, 2 ug/well
T2 construct: Non-deiminated
Description: as §1

[3] = biological target: T3, huPAD2 deiminated human recombinant histone H2B (human); assay: ELISA, 2 ug/well
T3 construct: also called H2B/p2
Description: as §1

[4] = biological target: T4, huPAD2 deiminated human recombinant histone H3 (human); assay: ELISA, 2 ug/well
T4 construct: also called H3/p2
Description: as §1

[5] = biological target: T5, huPAD4 deiminated human recombinant histone H3 (human); assay: ELISA, 2 ug/well
T5 construct: also called H3/p4
Description: as §1

[6] = biological target: T6, human recombinant histone H4 (human, UniProt P62805 2-103); assay: ELISA, 2 ug/well
Description: as §1

[7] = biological target: T1, human recombinant histone H2A; assay: ELISA, 0.00064 ug/well
Description: as §1

[8] = biological target: T7, huPAD2 deiminated human recombinant histone H2A (human); assay: ELISA, 0.00064 ug/well
T7 construct: also called H2A/p2
Description: as §1

[9] = biological target: T8, huPAD4 deiminated human recombinant histone H2A (human); assay: ELISA, 0.00064 ug/well
T8 construct: also called H2A/p4; huPAD4 deiminated histone 2A
Description: as §1

[10] = biological target: T2, human recombinant histone H2B; assay: ELISA, 0.00064 ug/well
Description: as §1

[11] = biological target: T3, huPAD2 deiminated human recombinant …; assay: ELISA, 0.00064 ug/well
Description: as §1

[12] = biological target: T9, huPAD4 deiminated human recombinant histone H2B (human); assay: ELISA, 0.00064 ug/well
T9 construct: also called H2B/p4
Description: as §1

[13] = biological target: T6, human recombinant histone H4; assay: ELISA, 0.00064 ug/well
Description: as §1

[14] = biological target: T10, CFC-1; assay: ELISA, 0.00064 ug/well
T10 construct: Positive control for anti-citrulline reactivity; also called cfc1 XG
Description: as §1

[15] = biological target: T11, huFibα XH (human, X at position 15 is citrulline; biotin label); assay: peptide ELISA, 0.4 ug/well
T11 peptide: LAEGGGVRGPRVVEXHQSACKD
Description: (§2) Biotin and citrulline-containing peptides derived from fibrinogen and vimentin were immobilized on NEUTRAVIDIN®-coated 96-well ELISA plates (0.3 μg/well). CFC-1 and CFC-0 were coated at the same concentration and served as positive and negative controls respectively for specific anti-citrulline reactivity and as coating controls. Non-coated wells were used to test for aspecific binding of the antibodies. […] Detection of bound anti-citrulline antibodies was performed by incubating the wells with rabbit-anti-human-HRP (1:2000) for one hour at RT followed by incubation with TMB substrate. The resulting OD (y-axis) is a measure for antibody binding.
(§3) Biotin-labeled and citrulline-containing fibrinogen and vimentin peptides (Table 5) were also tested for reactivity with the therapeutic antibodies. Peptides were coated on 96-well NEUTRAVIDIN®-ELISA plates.

[16] = biological target: T12, msFibβ XG (mouse, also: biotin label); assay: peptide ELISA, 0.4 ug/well
T12 peptide: EPTDSLDA[Cit]GHRPVDRR
Description: as §2, §3

[17] = biological target: T10, CFC-1; assay: peptide ELISA, 0.016 ug/well
Description: as §2, §3

[18] = biological target: T13, msFibα XH (mouse, X at position 15 is citrulline; biotin label); assay: peptide ELISA, 0.016 ug/well
T13 peptide: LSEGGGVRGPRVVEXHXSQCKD
Description: as §2, §3

[19] = biological target: T14, msFibα XG (mouse, X at position 8 is citrulline; biotin label); assay: peptide ELISA, 0.016 ug/well
T14 peptide: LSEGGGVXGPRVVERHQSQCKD
Description: as §2, §3

[20] = biological target: T11, huFibα XH; assay: peptide ELISA, 0.016 ug/well
Description: as §2, §3

[21] = biological target: T15, huFibα XG (human, X at position 8 is citrulline; biotin label); assay: peptide ELISA, 0.016 ug/well
T15 peptide: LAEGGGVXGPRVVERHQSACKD
Description: as §2, §3

[22] = biological target: T12, msFibβ XG; assay: peptide ELISA, 0.016 ug/well
Description: as §2, §3

[23] = biological target: T16, msVim XS/XL (mouse, also: biotin label); assay: peptide ELISA, 0.016 ug/well
T16 construct: also called mouse vimentin peptide
T16 peptide: YVT[Cit]SSAV[Cit]L[Cit]SSVP
Description: as §2, §3

[24] = biological target: T10, CFC-1; assay: peptide ELISA, 0.000128 ug/well
Description: as §2, §3

[25] = biological target: T13, msFibα XH; assay: peptide ELISA, 0.000128 ug/well
Description: as §2, §3

[26] = biological target: T14, msFibα XG; assay: peptide ELISA, 0.000128 ug/well
Description: as §2, §3

[27] = biological target: T11, huFibα XH; assay: peptide ELISA, 0.000128 ug/well
Description: as §2, §3

[28] = biological target: T15, huFibα XG; assay: peptide ELISA, 0.000128 ug/well
Description: as §2, §3

[29] = biological target: T12, msFibβ XG; assay: peptide ELISA, 0.000128 ug/well
Description: as §2, §3

[30] = biological target: T16, msVim XS/XL; assay: peptide ELISA, 0.000128 ug/well
Description: as §2, §3

[31] = biological target: PREDICTED: similar to 60S ribosomal protein L29 (Cell surface heparin-binding protein HIP) [Homo sapiens] (Homo sapiens); assay: IP from huPAD4 deiminated HEK293 lysate, nLC LTQ FTMS, emPAI; against RhmAb2.101
Description: Beads were subjected to three washes with 1 ml IPP500, one wash with 1 ml IPP150 (10 mM Tris/HC1 pH 8.0, 150 mM NaCl, 0.1% NP40 and 0.1% TWEEN®-20), and subsequently incubated at room temperature with 300 μl deiminated HEK293 lysate for two hours under constant rotation. Beads were washed three times with 1 ml of IPP150 after which a small part has been used for SDS-PAGE electrophoresis to determine if the IP procedure with the HEK293 cells was successful.
To remove PEGs from the immunoprecipitated proteins, they were loaded on a 15% SDS-PAGE gel and run shortly. […] Samples were diluted 50 fold before subjecting them to nLC LTQ FTMS ULTRA analysis.

B1: RhmAb2.102 (antibody, human IgG1, lambda)
heavy: not shown
light: QSVLTQPPSMSAAPGQKVTISCSGSSSNIGNNYVSWYQQVPGTAPKLLIYDDNKRPSGIPGRFSGSKSATSATLGITGLQAGDEADYYCGSWDDNLSVVLFGGGTKLTVLGQPKAAPSVTLFPPSSEELQANKATLVCLISDFYPGAVTVAWKADSSPVKAGVETTTPSKQSNNKYAASSYLSLTPEQWKSHRSYSCQVTHEGSTVEKTVAPTECS
notes: Human IgG1 lambda; also called Rhm2.102
[1]
  OD: 0.115 OD
[2]
  OD: 0.076 OD
[3]
  OD: 0.086 OD
[4]
  OD: 1.94 OD
[5]
  OD: 0.439 OD
[6]
  OD: 0.208 OD
[7]
  OD: 0.057 OD
[8]
  OD: 0.077 OD
[9]
  OD: 0.075 OD
[10]
  OD: 0.052 OD
[11]
  OD: 0.052 OD
[12]
  OD: 0.055 OD
[13]
  OD: 0.06 OD
[14]
  OD: 0.077 OD
[15]
  OD: 0.09 OD
[16]
  OD: 1.67 OD
[17]
  OD: 1.22 OD
[18]
  OD: 0.081 OD
[19]
  OD: 0.107 OD
[20]
  OD: 0.08 OD
[21]
  OD: 0.103 OD
[22]
  OD: 0.174 OD
[23]
  OD: 0.201 OD
[24]
  OD: 0.288 OD
[25]
  OD: 0.089 OD
[26]
  OD: 0.119 OD
[27]
  OD: 0.12 OD
[28]
  OD: 0.115 OD
[29]
  OD: 0.118 OD
[30]
  OD: 0.133 OD
[31]
  Ratio 102/101: 1
